From patent publication US20150057436A1 (ARGEN X, published 2015)

Columns and labels:
human IL-1 Beta [1] = target: T1, human IL-1 Beta (human, UniProt P01584 117-269, biotinylated in the Fab, phage and competition ELISAs); experiment: cell-based or functional assay
T1 construct: also called biot-IL-1 Beta; biotinylated IL-1 Beta
Target sequence in this assay (P01584 117-269 limits assumed): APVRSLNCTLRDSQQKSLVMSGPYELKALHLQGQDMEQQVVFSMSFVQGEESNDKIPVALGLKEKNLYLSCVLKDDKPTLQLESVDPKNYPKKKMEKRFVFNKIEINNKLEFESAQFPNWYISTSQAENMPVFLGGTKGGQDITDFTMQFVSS

human IL-1 Beta [2] = target: T1, human IL-1 Beta; experiment: ELISA based competition assay; competitor: antagonistic reference mouse mAb
Target sequence in this assay (P01584 117-269 limits assumed): as above

human IL-1 Beta [3] = target: T1, human IL-1 Beta; experiment: competition ELISA, periplasmic Fab extract; competitor: coated blocking mouse mAb; OD of biot-IL-1 Beta bound
Target sequence in this assay (P01584 117-269 limits assumed): as above

neutravidin = target: T2, neutravidin (UniProt P02701 25-152); experiment: phage ELISA on neutravidin coated wells, crude phage extract, anti-M13-HRP
T2 construct: Capture protein of the phage ELISA, tested alone as the negative control
T2 sequence (P02701 25-152): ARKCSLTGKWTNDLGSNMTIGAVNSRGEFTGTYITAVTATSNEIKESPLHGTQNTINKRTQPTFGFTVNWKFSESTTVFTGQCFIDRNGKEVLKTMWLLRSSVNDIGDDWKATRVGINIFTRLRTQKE
Procedure: (§1) The humanized variants of clone 1F2 were tested with phage expressing gene3-Fabs fusions (FIG. 4). Phage were produced from 4 independent clones for each construct: [0462] wt 1F2 and wt 1E2 (llama Vλ and VH fused to human CA and CH1) [0463] safe variant 1F2 and safe variant 1E2 (partially humanized Vλ fused to human CA and CH1) [0464] hum 1F2 and hum 1E2 (fully humanized Vλ and VH fused to human CA and CH1)
(§2) Four clones for each Fab were tested to overcome clonal variation (due to bacterial growth, phage production efficiency and toxicity etc. . . . ). Phage ELISA was performed by capturing of biotinylated IL-1 Beta on neutravidin coated Maxisorp plate and subsequent incubation of crude phage extract (i.e. bacterial medium). After extensive washing, bound phages were detected with an anti-M13-HRP monoclonal antibody. […] [0466] Back mutations in the framework regions of 1F2 VL and VH domains to the closest human germline successfully yield partially (safe) and fully (hum) humanized variants, maintaining antigen specificity. Successful Formatting of Camelid Variable Domains with Human Constant Domains

human IL-1 Beta [4] = target: T1, human IL-1 Beta; experiment: phage ELISA: biot-IL-1 Beta captured on neutravidin, crude phage, anti-M13-HRP
Procedure: as §1, §2

human IL-1 Beta [5] = target: T1, human IL-1 Beta; experiment: ELISA: Fab captured on anti-myc plate, biot-IL-1 Beta, streptavidin-HRP
Procedure: For this the Fabs were captured on an anti-myc coated Maxisorp plate. Biotinylated human IL-1 Beta was added and bound cytokine was detected using HRP-conjugated streptavidin.
The genes of these Fabs were ordered as synthetic genes with GeneArt (Germany) and were subsequently produced in E. coli, purified and tested for their ability to bind biot-IL-1 Beta. For this the Fabs were captured on an anti-myc coated Maxisorp plate. Biotinylated human IL-1 Beta was added and bound cytokine was detected using HRP-conjugated streptavidin. The read out of this assay is represented in FIG. 3 below. [0459] […] [0460] Partial (wt Vλ/safe VH) and complete (wt Vλ/hum VH) humanization of the VH domain of 1E2 generated a functional Fab.

B1: Fab 1A1 (Fab, part only; not given: lambda light chain, V domains shown, not shown: a dimerising Fc or GST)
VH: EVQLVESGGGLVQPGGSLRLSCAASGFTFDDYAMSWVRQAPGKGLEWVSTISWNGGATYYAESMKGRFTISRDNAKNTLYLQMNSLKSEDTAVYYCAKPYYSDYVGVEYDYWGQGTQVTVSS
- IC50 in the bioassay (human IL-1 Beta [1]): 10 µg/mL
- IC50 (human IL-1 Beta [2]): 12 µg/mL
- OD (human IL-1 Beta [3]): 0.205 OD

B2: Fab 1C3 (Fab, part only; not given: lambda light chain, V domains shown, not shown: a dimerising Fc or GST)
VH: EVQLVESGGGLVQPGGSLRLSCAASGFTFSSYWMYWVRQAPGKGLEWVSAINTGGGRTYYADSVKGRFTISRDNAKNTLYLQMNSLKSEDTAVYYCAKGTSADGSSWYVPADPYDYWGQGTQVTVSS
- IC50 in the bioassay (human IL-1 Beta [1]): 3 µg/mL
- concentration at which competition is seen (human IL-1 Beta [2]): > 50 µg/mL
- OD (human IL-1 Beta [3]): 0.386 OD

B3: Fab 1B3 (Fab, part only; not given: lambda light chain, V domains shown, not shown: a dimerising Fc or GST)
VH: EVQLVQSGAELRNPGASVKVSCKASGYTFTSYYIDWVRQAPGQGLEWMGRIDPEDGGTKYAQKFQGRVTFTADTSTSTAYVELSSLRSEDTAVYYCARSGRYELDYWGQGTQVTVSS
- OD (human IL-1 Beta [3]): 0.444 OD

B4: Fab 1G1 (Fab, part only; not given: lambda light chain, V domains shown, not shown: a dimerising Fc or GST)
VH: EVQLVQSGAELRNPGASVKVSCKASGYTFTSYYTDWVRQAPGQGLEWMGRIDPEDGDTKYAQKFQGRVTFTADTSTSTAYVELTSLRSEDTAVYYCLRSGAYELDYWGQGTQVTVSS
- OD (human IL-1 Beta [3]): 0.498 OD

B5: hum 1F2 (fully humanized Vλ and VH fused to human Cλ and CH1), phage expressing gene3-Fab fusion (Fab, V domains shown)
VH: EVQLLESGGGLVQPGGSLRLSCAASGFTFSTYAMSWVRQAPGKGLEWVSGINTGGGSTGYADSVKGRFTISRDNSKNTLYLQMNSLRAEDTAVYYCAKDWMATTPWGQGTLVTVSS
VL: QTVVTQEPSFSVSPGGTVTLTCGLSSGSVTTNNYPGWYQQTPGQAPRTLIYNTNNRSSGVPDRFSGSILGNKAALTITGAQADDESDYYCALYMSSGSNNAVFGGGTKLTVL
notes: also called fully (hum) humanized 1F2
- binding result (neutravidin): no binding
- binding result (human IL-1 Beta [4]): binds

B6: wild type llama 1E2 Fab (Fab, V domains shown)
VH: EVQLVESGGGLVQPGGSLRLSCTASGFTFSNYWMYWVRQAPGKGLEWVSAINAAGSTYYADSVKGRFTISRDNAKNTLYLQMNSLQSEDTALYYCANLPRWGQGTQVTVSS
VL: QTVVTQEPSLSVSPGGTVTLTCGLSSGSVTSGNYPGWYQQKPGQAPRTLIYNTNSRYSGVPNRFSGSISGNKAALTITGAQPEDEADYYCAVYIGSSSYPVVFGGGTHLTVL
notes: Llama variable and llama constant domains, produced from pCB3; captured through its myc tag; also called Fab 1E2
- binding result (human IL-1 Beta [5]): binds

B7: hum 1E2 (fully humanized Vλ and VH fused to human Cλ and CH1), phage expressing gene3-Fab fusion (Fab, V domains shown)
VH: EVQLVESGGGLVQPGGSLRLSCAASGFTFSNYWMYWVRQAPGKGLEWVSAINAAGSTYYADSVKGRFTISRDNSKNTLYLQMNSLRAEDTAVYYCANLPRWGQGTLVTVSS
VL: QTVVTQEPSFSVSPGGTVTLTCGLSSGSVTSGNYPGWYQQTPGQAPRTLIYNTNSRSSGVPDRFSGSILGNKAALTITGAQADDESDYYCAVYIGSSSYPVVFGGGTKLTVL
- binding result (neutravidin): no binding

B8: chimeric 1E2 Fab (llama Vλ and VH fused to human Cλ and CH1) (Fab, V domains shown)
VH: EVQLVESGGGLVQPGGSLRLSCTASGFTFSNYWMYWVRQAPGKGLEWVSAINAAGSTYYADSVKGRFTISRDNAKNTLYLQMNSLQSEDTALYYCANLPRWGQGTQVTVSS
VL: QTVVTQEPSLSVSPGGTVTLTCGLSSGSVTSGNYPGWYQQKPGQAPRTLIYNTNSRYSGVPNRFSGSISGNKAALTITGAQPEDEADYYCAVYIGSSSYPVVFGGGTHLTVL
notes: VH fused to human CH1, Vλ fused to human Cλ; produced in E. coli from pCB5; myc tag; also called wt 1E2
- binding result (human IL-1 Beta [5]): binds

B9: wt 1E2 (llama Vλ and VH fused to human Cλ and CH1), phage expressing gene3-Fab fusion (Fab, V domains shown)
VH: EVQLVESGGGLVQPGGSLRLSCTASGFTFSNYWMYWVRQAPGKGLEWVSAINAAGSTYYADSVKGRFTISRDNAKNTLYLQMNSLQSEDTALYYCANLPRWGQGTQVTVSS
VL: QTVVTQEPSLSVSPGGTVTLTCGLSSGSVTSGNYPGWYQQKPGQAPRTLIYNTNSRYSGVPNRFSGSISGNKAALTITGAQPEDEADYYCAVYIGSSSYPVVFGGGTHLTVL
- binding result (neutravidin): no binding

B10: 1E2 Fab wt Vλ/safe VH (Fab, V domains shown)
VH: EVQLVESGGGLVQPGGSLRLSCAASGFTFSNYWMYWVRQAPGKGLEWVSAINAAGSTYYADSVKGRFTISRDNSKNTLYLQMNSLQSEDTAVYYCANLPRWGQGTQVTVSS
VL: QTVVTQEPSLSVSPGGTVTLTCGLSSGSVTSGNYPGWYQQKPGQAPRTLIYNTNSRYSGVPNRFSGSISGNKAALTITGAQPEDEADYYCAVYIGSSSYPVVFGGGTHLTVL
notes: also called wt/safe
- binding result (human IL-1 Beta [5]): binds

B11: 1E2 Fab wt Vλ/hum VH (Fab, V domains shown)
VH: EVQLVESGGGLVQPGGSLRLSCAASGFTFSNYWMYWVRQAPGKGLEWVSAINAAGSTYYADSVKGRFTISRDNSKNTLYLQMNSLRAEDTAVYYCANLPRWGQGTLVTVSS
VL: QTVVTQEPSLSVSPGGTVTLTCGLSSGSVTSGNYPGWYQQKPGQAPRTLIYNTNSRYSGVPNRFSGSISGNKAALTITGAQPEDEADYYCAVYIGSSSYPVVFGGGTHLTVL
notes: also called wt/hum
- binding result (human IL-1 Beta [5]): binds
